# Reference: IntAct's records for PubMed 12193598
# B1: Palmitoyltransferase ERF2 (Saccharomyces cerevisiae), Q06551 (parent)
# chain: MALVSRRSTRSESTSITKEEHTGEGSLTKLFFRWLVTLEGDQDINDGKGYISLPNVSNYIFFLGGRFRTVKGAKPLWLGVLLAIVCPMVLFSIFEAHKLWHTQNGYKVLVIFFYYFWVITLASFIRTATSDPGVLPRNIHLSQLRNNYQIPQEYYNLITLPTHSSISKDITIKYCPSCRIWRPPRSSHCSTCNVCVMVHDHHCIWVNNCIGKRNYRFFLIFLLGAILSSVILLTNCAIHIARESGGPRDCPVAILLLCYAGLTLWYPAILFTYHIFMAGNQQTTREFLKGIGSKKNPVFHRVVKEENIYNKGSFLKNMGHLMLEPRGPSFVSARKPHEAGDWRFMDLSPAHSFEKIQKI
# partner: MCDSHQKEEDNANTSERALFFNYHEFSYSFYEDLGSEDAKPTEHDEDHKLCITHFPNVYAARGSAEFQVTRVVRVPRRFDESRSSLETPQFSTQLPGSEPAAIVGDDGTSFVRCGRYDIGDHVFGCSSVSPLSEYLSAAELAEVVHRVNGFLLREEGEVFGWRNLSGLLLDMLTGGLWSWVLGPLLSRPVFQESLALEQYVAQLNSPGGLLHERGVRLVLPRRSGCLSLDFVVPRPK
# Variants of: B1
# Conditions: with erfd_yeast SHR5, P41912
row,effect of a mutation on the interaction,Variant
1,disrupting interaction strength,C189S
2,with no effect,H201A
